The values that follow come from the nanobody polyreactivity screen of Harvey et al. (2022).

This series can be described thus: yeast display, Sf9 membrane polyspecificity reagent, FACS + sequencing; frameworks hold sequencing errors. In short, it runs like this:
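Polyreactivity labels are assigned by the sorting gate from which each nanobody was recovered. The gates were low and high (top ~1%), set on anti-HA fluorescence for expression and streptavidin fluorescence for reagent binding. Before sorting, galactose-induced (36–48 hours) yeast display cells were stained for 1 hour at 4 °C with 10% biotinylated, detergent-solubilized Sf9 membrane reagent.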
In the case of “QVQLVESGGGLVQAGGSLRLSCAAYGFIFRNYAMGWDRQAPGKERELVAAITWRGGSTYYADSVKGRFTISRDNAKNTVYLQMNSLKPEDTAVYYCAARGYRSREDYWGQGTQVTVSS”, the “polyreactivity (PSR sort gate)” value was “high polyreactivity”.

Turning to “QVQLVESGGGLVQAGGSLRLSCAAYGFIFVRYAMGWYRQAPGKERELVAAISWRGGSTYYADSVKGRFTISRDNAKNTVYLQMNSLKPEDNAVYYCAGAVYQRARYYWGQGTQVNVSS”, the “polyreactivity (PSR sort gate)” value was “high polyreactivity”.

For “QVQLVESGGGLVQAGGSLRLSCAAYGFIYRYYAMGWNRQAPGKERELVPGISVSGGGTYYADSVKGRFTISRDNAKNTVNLQMNSLKPEDTAVYYCAAERTFLYWAYDYWGQGTQVNVSS”, the “polyreactivity (PSR sort gate)” value is “high polyreactivity”.

On to “QVQLVESGGGLVQAGGSLRLSCAAYGHFFAIYAMGWYSQAPGKEREFVAAITFTTRTYYADSVKGRFTISRDNAKNTVYLQMNSLKPEDTAVYYCAAGGYGEEYDYWGQGTQVTVSS”, for which the “polyreactivity (PSR sort gate)” value is “low polyreactivity”.

As for “QVQLVESGGGLVQAGGSLRLSCAAYGIIFYYYAMGWYRQAPGKERELVAAITGTGSRTYYADSVKGRFTISRDNAKNTVYLQMNSLKPEDTAVYYCNARSFATGSEVPARGYWGQGTQVTVSS”, the “polyreactivity (PSR sort gate)” value is recorded as “high polyreactivity”.

For the sequence “QVQLVESGGGLVQAGGSLRLSCAAYGINFYKYAMVWSRQAPGQERELVASITKSAGSTNYADSDKGRFTISRDNAMNTVYLQMNSLKPEDTAVYYCAARRFTFNLFDYWGQGTQVTVSS”, the “polyreactivity (PSR sort gate)” value was “high polyreactivity”.

For “QVQLVESGGGLVQAGGSLRLSCAAYGITLYKYAMGWYRQAPGKERELVASISRSGGSTYYADSVKGRFTISRDNAKNTVYLEMNSLKPEDTAVYYCAKAVWWSRPAQKSYLYYYWGHGTQVTVSS”, the “polyreactivity (PSR sort gate)” value was “high polyreactivity”.

For “QVQLVESGGGLVQAGGSLRLSCAAYGNIFDGNAMGWYRQAPGKERELVAAITGRGGGTYYADSVKGRFTISRDNAKNTVYLLMNSLKPEDTAVYYCNKYYYRGGMDYWGQGTQVNVSS”, the “polyreactivity (PSR sort gate)” value was “high polyreactivity”.

As to “QVQLVESGGGLVQAGGSLRLSCAAYGPTFRYNTMGWNRQAPGKERELDARITWSGGSTYYADSVKGRFTISRDNAKNTVYLQMNSLKPEDTAVYYCAAVPILVYRWFQSYTGDYDYWGQGTHVTVSS”, the “polyreactivity (PSR sort gate)” value is listed as “low polyreactivity”.

As to “QVQLVESGGGLVQAGGSLRLSCAAYGRIFAYYTMGWYRQAPGKERELVAAINQSGGSTYYADSVKGRFTISRDNAKNTVYFQMNSLKPEDTAVYYCAAKPYSLYARRYAYDYWGQGTQVTVSS”, the “polyreactivity (PSR sort gate)” value is listed as “low polyreactivity”.

With “QVQLVESGGGLVQAGGSLRLSCAAYGRIFFYYVMGWYRQAPGNERELVAGITRGGISNYADSVKGRFTISRDNAKNTVYLQMNSLKPEDTAVYYCAAAYYRDSDRRYNYWGQGTQVTVSS”, the “polyreactivity (PSR sort gate)” value is recorded as “high polyreactivity”.

On to “QVQLVESGGGLVQAGGSLRLSCAAYGRIFGGYAMGWYRQAPGKERELVAAISRRGGSTYYADSVKGRFTISRDNAKNTVYLQMNSLKPEDTAVYYCNAVLSVQARLTRVDYDYWGQGTEVTVSS”, for which the “polyreactivity (PSR sort gate)” value was “high polyreactivity”.

Consider “QVQLVESGGGLVQAGGSLRLSCAAYGRIFPLNAMGWNRQAPGKERELVAAISYDGGTYYAYSVKGRFTISRDNAKNTFYLQMNSLKPEDTAVYYCANSRATWVGKHDYWGQGTQVTVSS”, for which the “polyreactivity (PSR sort gate)” value is “low polyreactivity”.

Turning to “QVQLVESGGGLVQAGGSLRLSCAAYGRIFRYNAMGWSTQAPGKERELVAAISRGGSSTYYADSVKGRFTISRDNAKNTVYLQMNSLQPEDTAVYYCNARSVVREFNNWGQGTQVTVSS”, the “polyreactivity (PSR sort gate)” value is on record as “high polyreactivity”.

Take “QVQLVESGGGLVQAGGSLRLSCAAYGRIFRYYAMGWYRQAPGKERELVVAISRSGSSTYYADSVKGRFTISRDNAKNTVYLQMNSLKPEDTAFYYCAAKLADQTRGTTSDSWGQGTQVTVSS”: the “polyreactivity (PSR sort gate)” value is on record as “high polyreactivity”.

On to “QVQLVESGGGLVQAGGSLRLSCAAYGRTFFSYTMGWYRQAPGKERELVASITWSGGSTYYADSVKGRFTISRDNAKNTVYLQMNSLKPEDTAVYYCAADEKLYITGYDYWGQGTQVNVSS”, for which the “polyreactivity (PSR sort gate)” value is recorded as “low polyreactivity”.
